For test [1], the target named is T1, catalytic domain of human MT1-MMP (residues 119-290) (Homo sapiens, UniProt P50281).
T1 construct: membrane type 1-matrix metalloproteinase (MT1-MMP), human, catalytic domain, residues 119-290, expressed from pET3a; also called CAT-MT1-MMP; catalytic domain of membrane type 1-matrix metalloproteinase
The experiment in a line: ELISA; monoclonal phage ELISA; MaxiSorp plates coated with CAT-MT1-MMP, MT2-MMP or MT3-MMP at 4°C overnight (BSA as negative control); culture supernatants with phages applied; anti-M13-HRP, OPD, OD490. To be noted: one partner purified.

Test [2] addresses T1, catalytic domain of human MT1-MMP …. The experiment in a line: ELISA; MaxiSorp plates coated overnight at 4°C with CAT-MT1-MMP; blocked with 3% BSA in PBS; serial dilutions of nanobodies, 90 min at 37°C; HRP anti-HA mAb, TMB, OD450. To be noted: both partners purified.
Test [3] deals with extracellular domain (ed) of MT1-MMP, Ala21-Ser538, Arg108Pro (Homo sapiens (species ; …, UniProt P50281, Arg108Pro). Put plainly: SPR; edMT1-MMP amine-coupled on a CM5 chip (104 RU); nanobody 16-250 nM, 3 min at 30 μl/min, 30 min dissociation; HBS-EP+ buffer; 25°C; Biacore X100; 1:1 binding model. To be noted: both partners purified.

We go through six molecules from paper PMC9729729, “Development of anti-membrane type 1-matrix metalloproteinase nanobodies as immunoPET probes for triple negative breast cancer imaging” (Frontiers in Medicine, 2022).

B1: 3CMP75 displayed on phage (monoclonal phage clone) (VHH)
VHH: QVQLQESGGGLVQAGGSLRLSCTASGRTFSSNAMAWFRLAPGKEREFVAAISGNGGSTTYADSVKGRVTISRDNAKNTVYLHMSSLKPEDTAVYYCNQRNFGRDGTLGDYWGNGTQVTVSS
notes: also called 3CMP75 phage clone; source: E. coli TG1 with phagemid, VCS-M13 helper phage, culture supernatant
Turning to B1, the binding result in test [1] is reported as “binds”.

B2: [^68Ga]Ga-NOTA-3CMP75 (VHH)
VHH: QVQLQESGGGLVQAGGSLRLSCTASGRTFSSNAMAWFRLAPGKEREFVAAISGNGGSTTYADSVKGRVTISRDNAKNTVYLHMSSLKPEDTAVYYCNQRNFGRDGTLGDYWGNGTQVTVSS
notes: also called radiolabeled-NOTA conjugate of 3CMP75; source: E. coli WK6 periplasm, purified, conjugated with p-SCN-Bn-NOTA and labelled with 68Ga, PD-10 purified
Consider B2, for which the binding result in test [2] is given as “binds”.

B3: nanobody 3CMP75 (CDR3 group 6), purified (VHH)
VHH: QVQLQESGGGLVQAGGSLRLSCTASGRTFSSNAMAWFRLAPGKEREFVAAISGNGGSTTYADSVKGRVTISRDNAKNTVYLHMSSLKPEDTAVYYCNQRNFGRDGTLGDYWGNGTQVTVSS
notes: Llama-derived VHH selected by phage display against CAT-MT1-MMP; also called Nb 3CMP75; 2CMP75 (as printed in two methods paragraphs); source: E. coli WK6 periplasm (pMECS), purified (IMAC HisTrap, SEC Superdex 75)
Turning to B3, the binding result in test [2] is on record as “binds”. Also, in test [3], binding was characterised by a dissociation constant (Kd) of 35 ± 3 nM.

B4: 3TPA14 displayed on phage (monoclonal phage clone) (VHH)
VHH: QVQLQESGGGLVQAGGSLRLSCAASGLILSGFSTGWFRQAPGKEREFLSTISSAGTRTYYADSVKGRFTISRDNAKNTVYLQMNRLKPEDAGVYYCTGYGRRSMPALRPEEWTYWGQGTQVTVSS
notes: also called 3TPA14 phage clone; source: E. coli TG1 with phagemid, VCS-M13 helper phage, culture supernatant
As to B4, the binding result in test [1] is given as “binds”.

B5: [^68Ga]Ga-NOTA-3TPA14 (VHH)
VHH: QVQLQESGGGLVQAGGSLRLSCAASGLILSGFSTGWFRQAPGKEREFLSTISSAGTRTYYADSVKGRFTISRDNAKNTVYLQMNRLKPEDAGVYYCTGYGRRSMPALRPEEWTYWGQGTQVTVSS
notes: also called radiolabeled-NOTA conjugate of 3TPA14; source: E. coli WK6 periplasm, purified, conjugated with p-SCN-Bn-NOTA and labelled with 68Ga, PD-10 purified
Turning to B5, the binding result in test [2] is recorded as “binds”.

B6: nanobody 3TPA14 (CDR3 group 1), purified (VHH)
VHH: QVQLQESGGGLVQAGGSLRLSCAASGLILSGFSTGWFRQAPGKEREFLSTISSAGTRTYYADSVKGRFTISRDNAKNTVYLQMNRLKPEDAGVYYCTGYGRRSMPALRPEEWTYWGQGTQVTVSS
notes: Llama-derived VHH selected by phage display against CAT-MT1-MMP; also called Nb 3TPA14; source: E. coli WK6 periplasm (pMECS), purified (IMAC HisTrap, SEC Superdex 75)
With B6, the binding result in test [2] is recorded as “binds”. Also, the affinity in test [3], expressed as Kd, was 15.8 ± 0.3 nM.
